Where two headings read alike, the source gives them in different places.
B1: Gmf1-GFP (natural protein, S. cerevisiae, UniProt Q12156 1-149, looked up)
chain: MSNLYKIGTETRNKIKKFRTSTARTDSIKALSIKIEPKPSYEIIVDEDEQEELDEIEDLSELAEILPDNSPRFVLTAYPTTTKDGFKQTPLVLVYWKPMTVVSQEWKMLYAGALEMIREECGTFKLIEVSSGLEDDSDVEELREQLENC
B2: wild-type Gmf1 (untagged) (natural protein, S. cerevisiae, UniProt Q12156 1-149, looked up)
chain: MSNLYKIGTETRNKIKKFRTSTARTDSIKALSIKIEPKPSYEIIVDEDEQEELDEIEDLSELAEILPDNSPRFVLTAYPTTTKDGFKQTPLVLVYWKPMTVVSQEWKMLYAGALEMIREECGTFKLIEVSSGLEDDSDVEELREQLENC

Assays:
yeast Arp2/3 complex [1] = target: T1, yeast Arp2/3 complex (yeast, UniProt P32381 1-391; P47117 1-449; P38328 1-384; P53731 1-342; Q05933 1-178; P33204 …); test: fluorescence polarisation
yeast Arp2/3 complex [2] = target: T1, yeast Arp2/3 complex; test: AUC
[3] = target: Arp3 (subunit of yeast Arp2/3 complex) (yeast, UniProt P47117 1-449); test: cross-linking
Sequence of Arp3 (subunit of yeast Arp2/3 complex) (P47117 whole entry, one chain of several): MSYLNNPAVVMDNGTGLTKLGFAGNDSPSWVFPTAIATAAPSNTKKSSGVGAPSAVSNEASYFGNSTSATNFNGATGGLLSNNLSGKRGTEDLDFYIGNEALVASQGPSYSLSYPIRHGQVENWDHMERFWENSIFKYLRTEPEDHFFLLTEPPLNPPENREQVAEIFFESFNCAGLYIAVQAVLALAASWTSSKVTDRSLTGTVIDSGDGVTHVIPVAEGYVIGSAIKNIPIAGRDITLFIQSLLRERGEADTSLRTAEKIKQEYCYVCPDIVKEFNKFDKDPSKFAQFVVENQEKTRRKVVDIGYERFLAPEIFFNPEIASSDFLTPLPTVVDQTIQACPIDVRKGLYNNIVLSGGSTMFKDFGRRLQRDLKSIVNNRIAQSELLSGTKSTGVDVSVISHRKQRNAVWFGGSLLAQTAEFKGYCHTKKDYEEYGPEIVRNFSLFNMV

[4] = target: ArpC1/Arc40 (subunit of yeast Arp2/3 complex) (yeast, UniProt P38328 1-384); test: cross-linking
Sequence of ArpC1/Arc40 (subunit of yeast Arp2/3 complex) (P38328 whole entry, one chain of several): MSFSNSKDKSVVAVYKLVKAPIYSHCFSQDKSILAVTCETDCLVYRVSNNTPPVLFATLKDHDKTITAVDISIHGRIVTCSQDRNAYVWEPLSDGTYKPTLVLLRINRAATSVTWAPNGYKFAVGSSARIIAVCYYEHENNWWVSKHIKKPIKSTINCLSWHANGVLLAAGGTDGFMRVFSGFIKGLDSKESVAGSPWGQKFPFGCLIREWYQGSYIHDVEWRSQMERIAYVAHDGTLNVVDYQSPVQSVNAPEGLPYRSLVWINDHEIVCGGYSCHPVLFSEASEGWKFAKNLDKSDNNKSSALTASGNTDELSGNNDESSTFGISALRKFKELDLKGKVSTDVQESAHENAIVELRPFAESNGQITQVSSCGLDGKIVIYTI

yeast Arp2/3 complex [5] = target: T1, yeast Arp2/3 complex; test: fluorescence polarisation; remark: listed apart in the source

Row | Binder | Kd (yeast Arp2/3 complex [1]) [nM] | KD of the first binding site (yeast Arp2/3 complex [2]) [nM] | KD of the second binding site (yeast Arp2/3 complex [2]) [nM] | stoichiometry N (yeast Arp2/3 complex [2]) | binding result [3] | binding result [4] | Kd (yeast Arp2/3 complex [5]) [nM]
1 | B1 | 13 ± 2 | < 30 | ~2000 | ~2 Gmf1-GFP per Arp2/3 complex | – | – | –
2 | B2 | – | – | – | – | binds | binds | 10 ± 3
